The record followed here is US20090208486A1.

The experiment addresses T1, mouse CXCR3 (mouse) (UniProt O88410).
T1 sequence (looked up): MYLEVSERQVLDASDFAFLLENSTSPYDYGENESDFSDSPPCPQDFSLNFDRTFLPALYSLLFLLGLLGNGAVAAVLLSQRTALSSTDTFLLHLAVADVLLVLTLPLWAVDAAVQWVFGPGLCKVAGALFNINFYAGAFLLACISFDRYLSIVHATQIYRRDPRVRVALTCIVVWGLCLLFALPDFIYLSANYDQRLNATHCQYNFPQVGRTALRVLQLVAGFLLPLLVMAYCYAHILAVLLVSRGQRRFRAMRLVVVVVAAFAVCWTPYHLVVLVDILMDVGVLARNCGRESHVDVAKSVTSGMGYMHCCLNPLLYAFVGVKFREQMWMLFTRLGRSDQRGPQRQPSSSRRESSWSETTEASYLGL
Kind of experiment: cell-based or functional assay.

“recombinant CXCL10 (Peprotech, Inc.) (ligand)” showed a chemokine concentration at which chemotaxis/chemoinvasion responses of B16F10 cells were obtained of 50 to 100 ng/mL.

B1: recombinant CXCL9 (Peprotech, Inc.) (ligand, UniProt P18340 22-126, looked up, species assumed)
C-X-C motif chemokine 9: TLVIRNARCSCISTSRGTIHYKSLKDLKQFAPSPNCNKTEIIATLKNGDQTCLDPDSANVKKLMKEWEKKISQKKKQKRGKKHQKNMKNRKPKTPQSRRRSRKTT
Regarding B1, the chemokine concentration at which chemotaxis/chemoinvasion responses of B16F10 cells were obtained was 50 to 100 ng/mL; the diffusely-stained B16F10 cell population 5 min after CXCL9 (100 ng/ml), phalloidin staining is 22.8%; the increase in intracellular Ca2+ concentration after CXCL9 (300 ng/ml) in CXCR3 antisense-transfectant B16F10 clones (CXCR3 protein reduced to about 20-25%) came to 5%; the increase in intracellular Ca2+ concentration of B16F10 cells after CXCL9 (300 ng/ml), Fluo-3 AM lay within 15 to 20%. The molecule further gave a proportion of actin filament polarized B16F10 cells 5 min after CXCL9 (100 ng/ml), phalloidin staining of 38.4%.

B2: recombinant CXCL11 (Peprotech, Inc.) (ligand, UniProt O14625 22-94, looked up, species assumed)
C-X-C motif chemokine 11: FPMFKRGRCLCIGPGVKAVKVADIEKASIMYPSNNCDKIEVIITLKENKGQRCLNPKSKQARLIIKKVERKNF
On to B2, for which the chemokine concentration at which chemotaxis/chemoinvasion responses of B16F10 cells were obtained lay within 50 to 100 ng/mL.
